Test results as given in article PMC7688965.

Key:
Experiment in all cases: IP-MS (HA-IP, label-free LC/MS-MS)
PSMC2 = settings: HA-tagged Hop exogenously overexpressed in KO1 cells; n = 2; left graph; read off a plot
HSPA4 = settings: HA-tagged Hop exogenously overexpressed in KO1 cells; n = 2; read off a plot
USP10 = settings: HA-tagged Hop exogenously overexpressed in KO1 cells; n = 2; right graph; read off a plot
HUWE1 = settings: HA-tagged Hop exogenously overexpressed in KO1 cells; n = 2; right graph; read off a plot
USP5 = settings: HA-tagged Hop exogenously overexpressed in KO1 cells; n = 2; right graph; read off a plot
CDC37 = settings: HA-tagged Hop exogenously overexpressed in KO1 cells; n = 2; read off a plot
PSMC4 = settings: HA-tagged Hop exogenously overexpressed in KO1 cells; n = 2; left graph; read off a plot
PSMC5 = settings: HA-tagged Hop exogenously overexpressed in KO1 cells; n = 2; left graph; read off a plot
PSMC3 = settings: HA-tagged Hop exogenously overexpressed in KO1 cells; n = 2; left graph; read off a plot
HSPA5 = settings: HA-tagged Hop exogenously overexpressed in KO1 cells; n = 2; read off a plot
UBA1 = settings: HA-tagged Hop exogenously overexpressed in KO1 cells; n = 2; right graph; read off a plot
PSMD11 = settings: HA-tagged Hop exogenously overexpressed in KO1 cells; n = 2; left graph; read off a plot
HSPA4L = settings: HA-tagged Hop exogenously overexpressed in KO1 cells; n = 2; read off a plot
DNAJA2 = settings: HA-tagged Hop exogenously overexpressed in KO1 cells; n = 2; read off a plot
HSPA6;HSPA7 = settings: HA-tagged Hop exogenously overexpressed in KO1 cells; n = 2; read off a plot
DNAJA1 = settings: HA-tagged Hop exogenously overexpressed in KO1 cells; n = 2; read off a plot
PSMD3 = settings: HA-tagged Hop exogenously overexpressed in KO1 cells; n = 2; left graph; read off a plot
HSPH1 = settings: HA-tagged Hop exogenously overexpressed in KO1 cells; n = 2; read off a plot
PSMD13 = settings: HA-tagged Hop exogenously overexpressed in KO1 cells; n = 2; left graph; read off a plot
PSMC1 = settings: HA-tagged Hop exogenously overexpressed in KO1 cells; n = 2; left graph; read off a plot
AHSA1 = settings: HA-tagged Hop exogenously overexpressed in KO1 cells; n = 2; read off a plot
PSMD12 = settings: HA-tagged Hop exogenously overexpressed in KO1 cells; n = 2; left graph; read off a plot
USP7 = settings: HA-tagged Hop exogenously overexpressed in KO1 cells; n = 2; right graph; read off a plot
UBE2N;UBE2NL = settings: HA-tagged Hop exogenously overexpressed in KO1 cells; n = 2; right graph; read off a plot

other: normalized enrichment (log2) WT Hop / K8A,K229A Hop (PSMC2): 0.65 log2
other: normalized enrichment (log2) WT Hop / K8A,K229A Hop (HSPA4): 1.7 log2
other: normalized enrichment (log2) WT Hop / K8A,K229A Hop (USP10): 2.5 log2
other: normalized enrichment (log2) WT Hop / K8A,K229A Hop (HUWE1): 2.7 log2
other: normalized enrichment (log2) WT Hop / K8A,K229A Hop (USP5): 2.3 log2
other: normalized enrichment (log2) WT Hop / K8A,K229A Hop (CDC37): 3.2 log2
other: normalized enrichment (log2) WT Hop / K8A,K229A Hop (PSMC4): 0.25 log2
other: normalized enrichment (log2) WT Hop / K8A,K229A Hop (PSMC5): 1.3 log2
other: normalized enrichment (log2) WT Hop / K8A,K229A Hop (PSMC3): 1 log2
other: normalized enrichment (log2) WT Hop / K8A,K229A Hop (HSPA5): 2.5 log2
other: normalized enrichment (log2) WT Hop / K8A,K229A Hop (UBA1): 0.85 log2
other: normalized enrichment (log2) WT Hop / K8A,K229A Hop (PSMD11): 1.7 log2
other: normalized enrichment (log2) WT Hop / K8A,K229A Hop (HSPA4L): 3 log2
other: normalized enrichment (log2) WT Hop / K8A,K229A Hop (DNAJA2): 4.3 log2
other: normalized enrichment (log2) WT Hop / K8A,K229A Hop (HSPA6;HSPA7): 4.5 log2
other: normalized enrichment (log2) WT Hop / K8A,K229A Hop (DNAJA1): 3.9 log2
other: normalized enrichment (log2) WT Hop / K8A,K229A Hop (PSMD3): 1.5 log2
other: normalized enrichment (log2) WT Hop / K8A,K229A Hop (HSPH1): 4 log2
other: normalized enrichment (log2) WT Hop / K8A,K229A Hop (PSMD13): 2.1 log2
other: normalized enrichment (log2) WT Hop / K8A,K229A Hop (PSMC1): 0.95 log2
other: normalized enrichment (log2) WT Hop / K8A,K229A Hop (AHSA1): 3 log2
other: normalized enrichment (log2) WT Hop / K8A,K229A Hop (PSMD12): 3.1 log2
other: normalized enrichment (log2) WT Hop / K8A,K229A Hop (USP7): 2.9 log2
other: normalized enrichment (log2) WT Hop / K8A,K229A Hop (UBE2N;UBE2NL): 0.8 log2
Substance: HA-tagged WT Hop (from UniProt P31948) K8A; K229A
